Assay results from patent publication US20120316071A1 (published 2012).

T1: rHuman Erythropoietin R/Fc Chimera, CF (R&D Systems Cat#963-ER) (human, UniProt P19235 25-250)
T1 construct: Bought reagent; also called EPO R/Fc; Epo R
T1 sequence (looked up): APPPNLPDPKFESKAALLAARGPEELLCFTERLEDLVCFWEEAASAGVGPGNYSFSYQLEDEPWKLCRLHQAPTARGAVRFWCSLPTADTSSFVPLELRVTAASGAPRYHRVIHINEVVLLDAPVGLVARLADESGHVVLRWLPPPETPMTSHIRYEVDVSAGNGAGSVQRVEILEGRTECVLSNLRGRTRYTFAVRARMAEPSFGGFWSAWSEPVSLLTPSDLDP

T2: rHuman Erythropoietin R/Fc Chimera, CF (R&D Systems Cat#963-ER) (human, UniProt P19235 25-250)
T2 construct: Bought from R&D Systems; also called EPO R/Fc; Epo R/Fc chimera; not shown: Fc of the bought chimera
T2 sequence (looked up): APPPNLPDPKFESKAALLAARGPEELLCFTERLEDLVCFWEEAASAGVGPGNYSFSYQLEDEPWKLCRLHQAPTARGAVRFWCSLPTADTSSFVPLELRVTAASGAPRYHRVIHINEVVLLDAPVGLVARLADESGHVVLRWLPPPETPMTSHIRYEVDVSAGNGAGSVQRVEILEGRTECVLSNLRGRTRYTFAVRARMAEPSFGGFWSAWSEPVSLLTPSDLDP


Legend:
[1] = target: T3, Recombinant Human DLL4 (R&D Systems Cat#1506-D4/CF) (human, UniProt Q9NR61 27-524); assay: MSD multispot ECL, antigen spotted, Fab 0.1 nM; blank spot 201
T3 construct: Bought recombinant protein; also called rHuman DLL4; delta-like protein 4

[2] = target: T4, rHuman ErbB2/Fc Chimera, CF (R&D Systems Cat#1129-ER) (human, UniProt P04626 23-652); assay: as above
T4 construct: Bought reagent; also called human epidermal growth factor 2 receptor

[3] = target: T5, rHuman EGF R/Fc Chimera, CF (R&D Systems Cat#344-ER) (human, UniProt P00533 25-645); assay: as above
T5 construct: Bought reagent; also called epidermal growth factor receptor

[4] = target: T6, rHuman HGF R/c-MET/Fc Chimera, CF (R&D Systems Cat#358-MT/CF) (human, UniProt P08581 25-932); assay: as above
T6 construct: Bought reagent; also called HGF R/Fc; hepatocyte growth factor receptor

[5] = target: T7, rHuman Notch-1/Fc Chimera, CF (R&D Systems Cat#3647-TK) (human, UniProt P46531 19-526); assay: as above
T7 construct: Bought reagent

[6] = target: T8, rHuman CD44/Fc Chimera, CF (R&D Systems Cat#3660-CD) (human, UniProt P16070 21-220); assay: as above
T8 construct: Bought reagent

[7] = target: T9, rHuman IGF-1 sR, (IGF-1 sR), CF (R&D Systems Cat#391-GR) (human, UniProt P08069 31-932); assay: as above
T9 construct: Bought soluble receptor; also called insulin-like growth factor-1 soluble receptor

[8] = target: T1, rHuman Erythropoietin R/Fc Chimera, CF …; assay: as above
[9] = target: T5, rHuman EGF R/Fc Chimera, CF (R&D …); assay: MSD multispot ECL, antigen spotted, Fab 37.2 nM; blank spot 199
[10] = target: T7, rHuman Notch-1/Fc Chimera, CF (R&D …); assay: as above
[11] = target: T9, rHuman IGF-1 sR, (IGF-1 sR), CF (R&D …); assay: as above
[12] = target: T10, Recombinant Human DLL4 (R&D Systems Cat#1506-D4/CF) (human, UniProt Q9NR61 27-524); assay: MSD multispot ECL, antigen spotted on plate, Fab 705 nM; blank spot 483
T10 construct: Bought from R&D Systems; also called rHuman DLL4; delta-like protein 4

[13] = target: T11, rHuman ErbB2/Fc Chimera, CF (R&D Systems Cat#1129-ER) (human, UniProt P04626 23-652); assay: as above
T11 construct: Bought from R&D Systems; also called human epidermal growth factor 2 receptor (ErbB2); not shown: Fc of the bought chimera

[14] = target: T12, rHuman EGF R/Fc Chimera, CF (R&D Systems Cat#344-ER) (human, UniProt P00533 25-645); assay: as above
T12 construct: Bought from R&D Systems; also called epidermal growth factor receptor (EGF R); not shown: Fc of the bought chimera

[15] = target: T13, rHuman HGF R/c-MET/Fc Chimera, CF (R&D Systems Cat#358-MT/CF) (human, UniProt P08581 25-932); assay: as above
T13 construct: Bought from R&D Systems; also called HGF R/Fc; hepatocyte growth factor receptor (HGF R/c-Met); not shown: Fc of the bought chimera

[16] = target: T14, rHuman Notch-1/Fc Chimera, CF (R&D Systems Cat#3647-TK) (human, UniProt P46531 19-526); assay: as above
T14 construct: Bought from R&D Systems; not shown: Fc of the bought chimera

[17] = target: T15, rHuman CD44/Fc Chimera, CF (R&D Systems Cat#3660-CD) (human, UniProt P16070 21-220); assay: as above
T15 construct: Bought from R&D Systems; not shown: Fc of the bought chimera

[18] = target: T16, rHuman IGF-1 sR, (IGF-1 sR), CF (R&D Systems Cat#391-GR) (human, UniProt P08069 31-932); assay: as above
T16 construct: Bought from R&D Systems and called a soluble receptor; also called insulin-like growth factor-1 soluble receptor

[19] = target: T2, rHuman Erythropoietin R/Fc Chimera, CF …; assay: as above

| ECL signal [1] | ECL signal [2] | ECL signal [3] | ECL signal [4] | ECL signal [5] | ECL signal [6] | ECL signal [7] | ECL signal [8] | ECL signal [9] | ECL signal [10] | ECL signal [11] | ECL signal [12] | ECL signal [13] | ECL signal [14] | ECL signal [15] | ECL signal [16] | ECL signal [17] | ECL signal [18] | ECL signal [19] | Binder |
| --- | --- | --- | --- | --- | --- | --- | --- | --- | --- | --- | --- | --- | --- | --- | --- | --- | --- | --- | --- |
| 317 ECL signal | 306 ECL signal | 311 ECL signal | 286 ECL signal | 378 ECL signal | 323 ECL signal | 241 ECL signal | 373 ECL signal | 228 ECL signal | 402 ECL signal | 295 ECL signal |  |  |  |  |  |  |  |  | Fab VH1-46_IGHD6-6*01_IGHJ1*01 & L6_IGKJ1*01 (Fab, V domains shown, Only variable domains are tied to the molecule; Tested as a Fab made in E. coli: heavy chain from Plasmid A (CH1 constant region, His6 and Flag tags), kappa light chain from Plasmid C (kappa CL); also called parent Hit Fab against DLL4; VH1-46_IGHD6-6*01_IGHJ1*01 & L6_IGKJ1*01 (parental)) VH: QVQLVQSGAEVKKPGASVKVSCKASGYTFTSYYMHWVRQAPGQGLEWMGIINPSGGSTSYAQKFQGRVTMTRDTSTSTVYMELSSLRSEDTAVYYCAREEYSSSSAEYFQHWGQGTLVTVSS VL: not shown |
|  |  |  |  |  |  |  |  |  |  |  | 981 | 671 | 692 | 839 | 958 | 693 | 630 | 4890 | Fab VH1-46_IGHD3-10*01_IGHJ4*01 & B3_IGKJ1*01 (Fab, V domains shown, Tested as a Fab made in E. coli; VH was cloned into Plasmid A (CH1 constant region, His6 and Flag tags); The kappa VL was cloned into Plasmid C (kappa CL)) VH: QVQLVQSGAEVKKPGASVKVSCKASGYTFTSYYMHWVRQAPGQGLEWMGIINPSGGSTSYAQKFQGRVTMTRDTSTSTVYMELSSLRSEDTAVYYCAREYYYGSGSYYNDYFDYWGQGTLVTVSS VL: not shown |
